Common to all, as to details: both partners purified
The target in assay [1] is T1, Homo sapiens Elp123 subcomplex, wild type (Homo sapiens, UniProt O95163 1-1332; Q6IA86 1-826; Q9H9T3 1-547).
T1 construct: Elp1, human, ORF; Elp2, human, ORF; Elp3, human, ORF; also called human Elp123; source: Sf9-3 insect cells (baculovirus, biGBac), purified (StrepTrap, heparin, Superose 6); not shown: Twin-Strep-tag, C-terminal, kept; copies: 2 + 2 + 2
The assay is described as follows: SEC; Elp123 incubated with the respective Elp456 for 30 min at 25°C at 1:2 weight ratio, then Superose 6 Increase 10/300 GL in 20 mM HEPES pH 7.5, 100 mM NaCl, 5 mM DTT. (In general: Size exclusion chromatography separates by hydrodynamic size, large species first.)

For assay [2], the target named is T2, Homo sapiens Elp123 subcomplex with Elp1 Δ1132–1224 (Homo sapiens, UniProt O95163 1-1332; Q6IA86 1-826; Q9H9T3 1-547, Δ1132–1224).
T2 construct: Elp2, human, ORF; Elp3, human, ORF; source: Sf9-3 insect cells (baculovirus, biGBac), purified (StrepTrap, heparin, Superose 6); not shown: Twin-Strep-tag, C-terminal, kept; copies: 2 + 2 + 2
The assay is described as follows: pull-down; 10 μg bait, 20 μg prey; Elp123 on StrepTactin Sepharose by Twin-Strep-tagged Elp3, or Elp456 on anti-DYKDDDDK resin by FLAG-tagged Elp6; 30-60 min at 4°C; washes in 20 mM HEPES pH 7.5, 100 mM NaCl, 1 mM DTT, 0.05% Tween 20; SDS-PAGE with Coomassie or silver stain; also with ATP and bulk tRNA.

In assay [3] the target is T3, Saccharomyces cerevisiae Elp2 (Saccharomyces cerevisiae, UniProt P42935 1-788).
T3 construct: Elp2, S. cerevisiae, full-length ORF; also called ScElp2; source: S. cerevisiae DS1-2b, overexpressed, purified within ScElongator
T3 sequence (looked up): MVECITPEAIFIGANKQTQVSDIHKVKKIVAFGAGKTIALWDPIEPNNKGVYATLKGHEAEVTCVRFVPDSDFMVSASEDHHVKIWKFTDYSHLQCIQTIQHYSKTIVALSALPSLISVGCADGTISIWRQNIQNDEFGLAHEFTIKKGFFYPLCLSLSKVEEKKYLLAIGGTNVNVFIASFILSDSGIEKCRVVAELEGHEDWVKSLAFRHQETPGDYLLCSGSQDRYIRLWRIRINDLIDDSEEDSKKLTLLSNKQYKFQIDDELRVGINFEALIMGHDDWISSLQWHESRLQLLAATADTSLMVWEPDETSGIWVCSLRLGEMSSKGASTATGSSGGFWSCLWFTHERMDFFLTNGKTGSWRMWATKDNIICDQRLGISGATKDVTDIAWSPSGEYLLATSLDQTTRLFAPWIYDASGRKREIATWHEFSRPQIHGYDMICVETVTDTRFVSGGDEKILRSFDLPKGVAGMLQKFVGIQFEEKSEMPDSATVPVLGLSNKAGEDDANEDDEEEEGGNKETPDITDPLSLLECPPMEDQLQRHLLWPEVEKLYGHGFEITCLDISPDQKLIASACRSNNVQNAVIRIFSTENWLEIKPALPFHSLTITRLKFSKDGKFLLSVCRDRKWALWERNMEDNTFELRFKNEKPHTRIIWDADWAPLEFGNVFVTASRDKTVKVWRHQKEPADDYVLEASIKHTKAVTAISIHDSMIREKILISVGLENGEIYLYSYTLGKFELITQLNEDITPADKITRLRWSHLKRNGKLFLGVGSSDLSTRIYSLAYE
The assay is described as follows: cryo-EM structure; ScElp123 with yeast tRNA Ala UGC (3-5 molar excess, 15 min on ice), 3.96 Å.

The target of assay [4] is T4, Saccharomyces cerevisiae Elp1 (Saccharomyces cerevisiae, UniProt Q06706 1-1349).
T4 construct: Elp1, S. cerevisiae, full-length ORF; also called ScElp1; source: S. cerevisiae DS1-2b, overexpressed, purified within ScElongator
T4 sequence (looked up): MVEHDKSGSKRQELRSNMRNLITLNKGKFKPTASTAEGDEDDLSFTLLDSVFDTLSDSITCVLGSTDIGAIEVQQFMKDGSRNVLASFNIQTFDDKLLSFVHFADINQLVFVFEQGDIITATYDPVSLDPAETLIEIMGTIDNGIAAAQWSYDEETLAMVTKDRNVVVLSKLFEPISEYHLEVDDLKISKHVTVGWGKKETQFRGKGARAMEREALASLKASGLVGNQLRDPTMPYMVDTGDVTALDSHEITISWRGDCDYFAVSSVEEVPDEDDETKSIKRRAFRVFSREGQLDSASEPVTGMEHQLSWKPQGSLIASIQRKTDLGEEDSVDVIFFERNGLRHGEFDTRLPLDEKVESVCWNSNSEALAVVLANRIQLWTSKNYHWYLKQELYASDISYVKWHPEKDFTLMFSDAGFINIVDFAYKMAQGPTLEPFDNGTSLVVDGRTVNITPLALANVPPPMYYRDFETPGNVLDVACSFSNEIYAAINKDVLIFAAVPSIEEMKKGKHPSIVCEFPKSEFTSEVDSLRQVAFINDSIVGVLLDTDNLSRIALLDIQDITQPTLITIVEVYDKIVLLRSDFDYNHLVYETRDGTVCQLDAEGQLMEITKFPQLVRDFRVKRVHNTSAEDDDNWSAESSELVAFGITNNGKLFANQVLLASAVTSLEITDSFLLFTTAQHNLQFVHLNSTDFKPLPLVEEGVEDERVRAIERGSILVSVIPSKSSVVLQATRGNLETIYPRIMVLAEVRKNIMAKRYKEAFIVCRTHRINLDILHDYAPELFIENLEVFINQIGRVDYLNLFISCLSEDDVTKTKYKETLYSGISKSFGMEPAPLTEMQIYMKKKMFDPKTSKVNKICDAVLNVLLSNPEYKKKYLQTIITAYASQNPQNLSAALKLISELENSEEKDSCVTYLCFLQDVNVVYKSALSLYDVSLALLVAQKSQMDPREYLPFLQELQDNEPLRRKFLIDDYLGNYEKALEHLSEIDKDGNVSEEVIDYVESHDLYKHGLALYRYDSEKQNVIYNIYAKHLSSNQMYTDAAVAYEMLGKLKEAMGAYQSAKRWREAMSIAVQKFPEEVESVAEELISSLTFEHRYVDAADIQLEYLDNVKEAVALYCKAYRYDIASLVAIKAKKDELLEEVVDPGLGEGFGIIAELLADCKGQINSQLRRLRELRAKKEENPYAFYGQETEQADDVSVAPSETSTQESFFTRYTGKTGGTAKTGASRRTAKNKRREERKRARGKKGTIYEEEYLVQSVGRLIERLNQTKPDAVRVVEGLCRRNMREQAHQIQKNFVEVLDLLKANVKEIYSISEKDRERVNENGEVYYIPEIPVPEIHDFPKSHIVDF
The description is as above.

The target in assay [5] is T5, Mus musculus Elp123 subcomplex (Mus musculus, UniProt Q7TT37 1-1333; Q91WG4 1-831; Q9CZX0 1-547).
T5 construct: Elp1, mouse, ORF; Elp2, mouse, ORF; Elp3, mouse, ORF; Gel filtration at about 610 kDa; also called MmElp123; mouse Elp123; source: Super Sf9-1 insect cells (baculovirus, biGBac), purified (StrepTrap, heparin, Superose 6); not shown: Twin-Strep-tag, C-terminal, kept; copies: 2 + 2 + 2
The assay is described as follows: cryo-EM structure; MmElongator reconstituted from purified MmElp123 and MmElp456 and re-purified by gel filtration, 5.9 Å.

T5 sequence (Q7TT37 whole entry, chain 1 of 3): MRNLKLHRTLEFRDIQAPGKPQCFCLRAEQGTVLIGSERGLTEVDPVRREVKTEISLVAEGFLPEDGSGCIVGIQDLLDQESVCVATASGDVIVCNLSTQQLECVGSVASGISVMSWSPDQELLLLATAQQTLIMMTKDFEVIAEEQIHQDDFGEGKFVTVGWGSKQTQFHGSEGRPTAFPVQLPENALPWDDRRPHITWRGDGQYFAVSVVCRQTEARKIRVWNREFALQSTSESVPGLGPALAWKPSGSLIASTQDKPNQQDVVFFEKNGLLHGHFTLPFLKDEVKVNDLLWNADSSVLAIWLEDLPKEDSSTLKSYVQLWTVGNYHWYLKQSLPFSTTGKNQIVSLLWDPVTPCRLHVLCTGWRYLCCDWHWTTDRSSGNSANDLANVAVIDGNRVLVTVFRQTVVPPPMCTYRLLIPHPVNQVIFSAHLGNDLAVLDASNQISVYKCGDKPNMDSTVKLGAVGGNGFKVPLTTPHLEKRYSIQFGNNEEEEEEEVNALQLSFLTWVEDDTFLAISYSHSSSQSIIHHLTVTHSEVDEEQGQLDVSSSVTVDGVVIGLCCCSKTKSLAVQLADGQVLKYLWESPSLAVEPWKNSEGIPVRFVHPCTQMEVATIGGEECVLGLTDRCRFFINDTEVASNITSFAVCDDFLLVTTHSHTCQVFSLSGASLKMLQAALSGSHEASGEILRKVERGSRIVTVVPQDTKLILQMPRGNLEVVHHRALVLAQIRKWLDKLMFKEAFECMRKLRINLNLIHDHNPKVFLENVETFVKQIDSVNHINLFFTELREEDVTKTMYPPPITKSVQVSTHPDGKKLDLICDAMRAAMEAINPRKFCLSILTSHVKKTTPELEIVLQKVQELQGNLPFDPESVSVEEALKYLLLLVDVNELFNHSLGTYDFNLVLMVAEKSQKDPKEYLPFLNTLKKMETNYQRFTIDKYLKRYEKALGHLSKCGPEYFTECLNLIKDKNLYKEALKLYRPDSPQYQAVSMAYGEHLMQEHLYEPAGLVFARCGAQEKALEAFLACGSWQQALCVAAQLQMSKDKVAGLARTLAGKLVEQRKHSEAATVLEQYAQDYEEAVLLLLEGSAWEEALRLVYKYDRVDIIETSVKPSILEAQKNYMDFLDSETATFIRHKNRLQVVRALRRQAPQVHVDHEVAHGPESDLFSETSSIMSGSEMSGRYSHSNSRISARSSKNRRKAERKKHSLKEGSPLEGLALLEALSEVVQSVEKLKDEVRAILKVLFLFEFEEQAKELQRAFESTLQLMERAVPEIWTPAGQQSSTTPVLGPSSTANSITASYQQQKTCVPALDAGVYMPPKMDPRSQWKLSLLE
T5 sequence (Q91WG4 whole entry, chain 2 of 3): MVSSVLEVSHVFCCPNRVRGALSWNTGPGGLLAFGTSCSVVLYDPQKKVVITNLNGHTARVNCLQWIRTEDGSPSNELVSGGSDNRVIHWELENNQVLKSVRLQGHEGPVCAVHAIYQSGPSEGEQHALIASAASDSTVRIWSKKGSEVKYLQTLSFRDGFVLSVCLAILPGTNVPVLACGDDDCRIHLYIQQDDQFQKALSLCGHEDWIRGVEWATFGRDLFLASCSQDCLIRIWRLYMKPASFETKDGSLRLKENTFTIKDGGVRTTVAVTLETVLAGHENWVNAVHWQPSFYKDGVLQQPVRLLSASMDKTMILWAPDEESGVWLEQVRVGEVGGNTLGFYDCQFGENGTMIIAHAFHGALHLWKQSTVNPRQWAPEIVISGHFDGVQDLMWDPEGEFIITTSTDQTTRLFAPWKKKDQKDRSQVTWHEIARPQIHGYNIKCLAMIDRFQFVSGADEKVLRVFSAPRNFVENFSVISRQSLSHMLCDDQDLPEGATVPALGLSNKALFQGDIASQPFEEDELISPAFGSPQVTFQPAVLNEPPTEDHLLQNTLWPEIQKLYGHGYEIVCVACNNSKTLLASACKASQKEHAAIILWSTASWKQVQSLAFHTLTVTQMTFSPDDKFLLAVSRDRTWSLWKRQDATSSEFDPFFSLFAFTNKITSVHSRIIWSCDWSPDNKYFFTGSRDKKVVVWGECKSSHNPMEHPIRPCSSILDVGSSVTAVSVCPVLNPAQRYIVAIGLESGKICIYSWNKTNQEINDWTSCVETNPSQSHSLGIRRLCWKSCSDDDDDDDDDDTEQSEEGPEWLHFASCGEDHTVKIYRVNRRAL
T5 sequence (Q9CZX0 whole entry, chain 3 of 3): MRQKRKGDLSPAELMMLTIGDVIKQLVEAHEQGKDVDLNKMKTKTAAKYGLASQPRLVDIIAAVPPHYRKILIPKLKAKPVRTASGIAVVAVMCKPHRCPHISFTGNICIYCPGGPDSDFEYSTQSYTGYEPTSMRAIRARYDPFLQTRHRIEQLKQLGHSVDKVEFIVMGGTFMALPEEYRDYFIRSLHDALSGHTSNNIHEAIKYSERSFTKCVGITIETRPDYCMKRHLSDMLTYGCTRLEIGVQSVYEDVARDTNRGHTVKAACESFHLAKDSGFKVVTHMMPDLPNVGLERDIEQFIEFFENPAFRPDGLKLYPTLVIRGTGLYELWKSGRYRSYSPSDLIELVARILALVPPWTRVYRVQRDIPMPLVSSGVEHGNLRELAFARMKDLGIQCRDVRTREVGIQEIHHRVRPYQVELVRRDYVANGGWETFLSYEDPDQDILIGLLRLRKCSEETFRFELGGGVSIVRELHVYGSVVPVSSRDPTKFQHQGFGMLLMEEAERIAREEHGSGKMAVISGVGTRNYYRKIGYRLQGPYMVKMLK

B1: Homo sapiens Elp456 subcomplex, wild type (complex)
chain 1: MAAVATCGSVAASTGSAVATASKSNVTSFQRRGPRASVTNDSGPRLVSIAGTRPSVRNGQLLVSTGLPALDQLLGGGLAVGTVLLIEEDKYNIYSPLLFKYFLAEGIVNGHTLLVASAKEDPANILQELPAPLLDDKCKKEFDEDVYNHKTPESNIKMKIAWRYQLLPKMEIGPVSSSRFGHYYDASKRMPQELIEASNWHGFFLPEKISSTLKVEPCSLTPGYTKLLQFIQNIIYEEGFDGSNPQKKQRNILRIGIQNLGSPLWGDDICCAENGGNSHSLTKFLYVLRGLLRTSLSACIITMPTHLIQNKAIIARVTTLSDVVVGLESFIGSERETNPLYKDYHGLIHIRQIPRLNNLICDESDVKDLAFKLKRKLFTIERLHLPPDLSDTVSRSSKMDLAESAKRLGPGCGMMAGGKKHLDF
chain 2: MLDSLLALGGLVLLRDSVEWEGRSLLKALVKKSALCGEQVHILGCEVSEEEFREGFDSDINNRLVYHDFFRDPLNWSKTEEAFPGGPLGALRAMCKRTDPVPVTIALDSLSWLLLRLPCTTLCQVLHAVSHQDSCPGDSSSVGKVSVLGLLHEELHGPGPVGALSSLAQTEVTLGGTMGQASAHILCRRPRQRPTDQTQWFSILPDFSLDLQEGPSVESQPYSDPHIPPVDPTTHLTFNLHLSKKEREARDSLILPFQFSSEKQQALLRPRPGQATSHIFYEPDAYDDLDQEDPDDDLDI
chain 3: MFVELNNLLNTTPDRAEQGKLTLLCDAKTDGSFLVHHFLSFYLKANCKVCFVALIQSFSHYSIVGQKLGVSLTMARERGQLVFLEGLKSAVDVVFQAQKEPHPLQFLREANAGNLKPLFEFVREALKPVDSGEARWTYPVLLVDDLSVLLSLGMGAVAVLDFIHYCRATVCWELKGNMVVLVHDSGDAEDEENDILLNGLSHQSHLILRAEGLATGFCRDVHGQLRILWRRPSQPAVHRDQSFTYQYKIQDKSVSFFAKGMSPAVL
notes: Elp4, human, ORF; Elp5, human, ORF; Elp6, human, ORF; also called human Elp456; source: Hi-5 insect cells (baculovirus, biGBac), purified (IgG Sepharose with TEV elution, Superose 6); not shown: FLAG, C-terminal, kept; Protein A, C-terminal, cleaved; copies: 2 + 2 + 2
As for B1, the binding result in assay [1] and in assay [2] was “binds” each time.

B2: Saccharomyces cerevisiae Elp3 (enzyme, UniProt Q02908 1-557, looked up)
chain: MARHGKGPKTNKKKLAPEKERFIQCCADITLELTDSLTSGTTREINLNGLITKYSKKYKLKQQPRLTDIINSIPDQYKKYLLPKLKAKPVRTASGIAVVAVMCKPHRCPHIAYTGNICVYCPGGPDSDFEYSTQSYTGYEPTSMRAIRARYDPYEQARGRVEQLKQLGHSIDKVEYVLMGGTFMSLPKEYREDFIVKLHNALSGFNGNDIDEAILYSQQSLTKCVGITIETRPDYCTQTHLDDMLKYGCTRLEIGVQSLYEDVARDTNRGHTVRSVCETFAVSKDAGYKVVSHMMPDLPNVGMERDIEQFKEYFENPDFRTDGLKIYPTLVIRGTGLYELWKTGRYKSYSANALVDLVARILALVPPWTRIYRVQRDIPMPLVTSGVDNGNLRELALARMKDLGTTCRDVRTREVGIQEVHHKVQPDQVELIRRDYYANGGWETFLSYEDPKKDILIGLLRLRKASKKYTYRKEFTSQRTSIVRELHVYGSVVPLHSRDPRKFQHQGFGTLLMEEAERIAKEEHGSEKISVISGVGVRNYYGKLGYELDGPYMSKRI
notes: Elp3, S. cerevisiae, full-length ORF; also called ScElp3; source: S. cerevisiae DS1-2b, overexpressed, purified within ScElongator; not shown: Twin-Strep-tag, C-terminal, kept
B2: the binding result in assay [3] and in assay [4] was “binds” in each case.

B3: Mus musculus Elp456 subcomplex (complex)
chain 1: MAAADTCGAGTLSSRSVASEAGQGGTSSFQRKGKASGGPGGGPRLLSIAGTRPSVRNGQLLVSTGLPALDQLLGGGLAVGTLLLIEEDKYNIYSPLLFKYFMAEGIINGHTLLVASAKENPAKILQELPAPLLDDNSKKELEDVHSAKTPEPNVNMKIAWRYQLQPKMEVGPVSSSRFGHYYDLSKRIPWELLQSSKWHGFFLPEHISPDLKGESCFLSCGYMRLLEFIQKSVYAEGFDGANPQKKQKNILRIGIQNLGSPLWGDDICCKENCDNNHRLTKFLYILRGLLRSSLSACIITMPAHLVQNKSITTRVRNLSDTVVGLESFIGSERETNPLYKDYHGLIHIRKIPRLNNLTCDESDVKDLAFKLKRKLFTIERLHLPPDLSDTVGRSSKQDLAASTARLGAGCSSMAEGKKHLDF
chain 2: MLDSLLAIGGLVLLRDSVEWEGRSLLKALIKKSALRGEQVHVLGCEVSEEEFREGFDSDVNSRLVYHDLFRDPLNWSKPGEAVPEGPLKALRSMCKRTDHGSVTIALDSLSWLLCHIPCVTLCQALHALSQQNGDPGDNSLVEQVRVLGLLHEELHGPGSMGALNTLAHTEVTLSGKVDQTSASILCRRPQQRATYQTWWFSVLPDFSLTLHEGLPLRSELHPDHHTTQVDPTAHLTFNLHLSKKEREARDSLTLPFQFSSEKQKALLHPVPSRTTGHIFYEPDAFDDVDPEDPDDDLDI
chain 3: MFPELNNLLSTTPDKTEQGTLTLLCDAKTDGSFLVHHFLSFYLKANCKVCFVALVQSFSHYNIVGQKLGVSLTAARDRGQLVFLEGLKSSVEVLFHSQDEPHPLQFLREAGTGNLQSLYTFIQDTLKPADSEESPWKYPVLLVDNLSVLLSLGVGAVAVLDFMQYCRATVCCELKGNVVALVHDTEGATDEGNDTLLNGLSHQSHLILRAEGLATGFCKDVHGQLSILWRRPSRSTAQRAQSLTYQYKIQDKNVSFFAKGMSPAVL
notes: Elp4, mouse, ORF; Elp5, mouse, ORF; Elp6, mouse, ORF; Gel filtration at about 220 kDa; also called MmElp456; mouse Elp456; source: Hi-5 insect cells (baculovirus, biGBac), purified (IgG Sepharose with TEV elution, Superose 6); not shown: FLAG, C-terminal, kept; Protein A, C-terminal, cleaved; copies: 2 + 2 + 2
With B3, the stoichiometry N (in general, a count of units in the complex or per binding partner) in assay [5] stood at 1.

(Values after paper PMC10018365, “Cryo-EM structure of the fully assembled Elongator complex” (Nucleic Acids Research, 2023).)
